Assay results taken from patent US20140271478A1 (University of California, published 2014).
Where a chain is given by its changes, count along the chain named. Blank lines part the entries; values can stand above or below the binder they belong to.

Columns and labels:
Test in all cases: cell staining of β8 amino acid swap constructs (175-180)
[1] = target: T1, human integrin β8 swap construct KKMALF (SEQ ID NO:132) (human, UniProt P26012 43-769)
T1 sequence: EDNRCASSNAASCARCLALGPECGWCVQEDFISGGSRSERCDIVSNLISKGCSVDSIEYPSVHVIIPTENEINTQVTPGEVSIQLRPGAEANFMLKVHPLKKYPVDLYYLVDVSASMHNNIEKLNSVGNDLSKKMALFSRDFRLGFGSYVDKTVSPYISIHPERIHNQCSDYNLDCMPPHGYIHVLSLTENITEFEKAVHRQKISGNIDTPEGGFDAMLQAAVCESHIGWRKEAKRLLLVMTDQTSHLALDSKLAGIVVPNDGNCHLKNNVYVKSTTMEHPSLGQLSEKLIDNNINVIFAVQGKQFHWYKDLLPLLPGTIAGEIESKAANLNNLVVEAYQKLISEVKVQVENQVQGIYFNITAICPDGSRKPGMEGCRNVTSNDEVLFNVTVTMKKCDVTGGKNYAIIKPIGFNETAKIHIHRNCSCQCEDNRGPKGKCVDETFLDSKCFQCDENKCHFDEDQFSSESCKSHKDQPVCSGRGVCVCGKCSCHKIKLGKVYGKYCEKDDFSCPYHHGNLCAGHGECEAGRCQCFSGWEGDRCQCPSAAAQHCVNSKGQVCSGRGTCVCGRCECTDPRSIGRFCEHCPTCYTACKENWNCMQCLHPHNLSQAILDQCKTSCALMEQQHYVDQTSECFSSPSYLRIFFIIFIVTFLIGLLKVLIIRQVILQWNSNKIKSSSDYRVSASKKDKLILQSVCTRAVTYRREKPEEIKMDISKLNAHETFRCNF

[2] = target: T2, human integrin β8 swap construct RKMAFY (SEQ ID NO:130) (human, UniProt P26012 43-769)
T2 sequence: T1 sequence with K133R, L137F, F138Y

[3] = target: T3, human integrin αβ8 (αvβ8) expressed on cells (human, UniProt P06756 31-1048)
T3 construct: whole, on cells; β8 transfected into or endogenous on cells, unfixed or formalin fixed; also called human integrin β8; ITGB8
T3 sequence (P06756 31-1048): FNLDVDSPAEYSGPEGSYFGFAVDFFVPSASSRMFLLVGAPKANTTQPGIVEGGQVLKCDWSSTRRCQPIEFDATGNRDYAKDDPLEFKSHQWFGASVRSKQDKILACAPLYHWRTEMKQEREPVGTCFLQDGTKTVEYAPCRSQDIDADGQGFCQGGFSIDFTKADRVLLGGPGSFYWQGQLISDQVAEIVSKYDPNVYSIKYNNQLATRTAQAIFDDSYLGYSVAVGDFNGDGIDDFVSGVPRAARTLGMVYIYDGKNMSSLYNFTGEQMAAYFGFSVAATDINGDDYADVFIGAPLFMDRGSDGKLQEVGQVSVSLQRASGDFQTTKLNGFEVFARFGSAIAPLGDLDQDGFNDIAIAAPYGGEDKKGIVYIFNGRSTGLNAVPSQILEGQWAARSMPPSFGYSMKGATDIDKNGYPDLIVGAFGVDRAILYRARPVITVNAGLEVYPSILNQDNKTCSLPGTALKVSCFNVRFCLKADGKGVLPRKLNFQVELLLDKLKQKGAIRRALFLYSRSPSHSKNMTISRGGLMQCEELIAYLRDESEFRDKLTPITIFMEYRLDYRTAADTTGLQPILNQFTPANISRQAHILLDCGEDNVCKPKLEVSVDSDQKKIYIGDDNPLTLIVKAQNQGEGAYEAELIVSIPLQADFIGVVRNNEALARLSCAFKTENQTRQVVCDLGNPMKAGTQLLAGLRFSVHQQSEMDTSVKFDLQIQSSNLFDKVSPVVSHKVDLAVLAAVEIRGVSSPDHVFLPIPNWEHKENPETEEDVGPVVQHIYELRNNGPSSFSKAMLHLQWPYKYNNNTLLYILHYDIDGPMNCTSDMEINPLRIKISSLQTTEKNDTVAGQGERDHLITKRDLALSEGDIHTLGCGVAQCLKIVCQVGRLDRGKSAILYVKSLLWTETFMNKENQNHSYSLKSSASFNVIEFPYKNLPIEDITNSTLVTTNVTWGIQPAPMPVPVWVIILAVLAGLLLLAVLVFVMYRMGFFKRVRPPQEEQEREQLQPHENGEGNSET

[4] = target: T4, human integrin β8 swap construct KKMAFF (SEQ ID NO:133) (human, UniProt P26012 43-769)
T4 sequence: T1 sequence with L137F

% positive [1]: 31% | % positive [2]: 89% | % positive [3]: 108% | % positive [4]: 116%
B1: 37E1B5 antibody (antibody, V domains shown)
VH: EVQLVESGGGLVQPGGSLNLSCAVSGFVFSRYWMSWVRQAPGKGLEWIGEINPDSSTINYTSSLKDKFIISRDNAKNTLYLQMNKVRSEDTALYYCACLITTEDYWGQGTSVTVSS
VL: QIVLTQSPSSMYASLGERVTIPCKASQDINSYLSWFQQKPGKSPKTLIYYANRLVDGVPSRFSGSGSGQDYSLTISSLEYEDMGIYYCLQYDEFPYTFGGGTKLEIK

% positive [1]: 1% | % positive [2]: 6% | % positive [3]: 112% | % positive [4]: 9%
B2: 14E5 antibody (antibody, V domains shown)
VH: EVQLQQSGAELMKPGASVKISCKATGYTFSTYWIEWIKQRPGHGLEWIGHILPGSVITNYNEKFKGKAAITADTSSNTSYMQLSSLTSEDSAVYYCARWGWDSYWGQGTLVTVSS
VL: DIEMTQSPSSLSASLGDRVTISCSTSQDISSSLNWYQQKPDGTVTLLIYYTSNLHSGVPSRFSGSGSGTDYSLTISNLEPEDIATYYCQQYSKLPYTFGGGTKLEIKR
notes: Mouse hybridoma antibody; also called hybridoma clone 14E5

% positive [1]: 3% | % positive [2]: 108% | % positive [3]: 97% | % positive [4]: 115%
B3: 11E8 antibody (antibody, V domains shown)
VH: EVQLQQSGPELMKTGASVKISCKATGYTFSSYWIEWVKQRPGHGLEWIGDILPGSGTTNYNEKFKGRATVTADRSSNTAYMQLSSLTYGDSAVYYCATWGWDTYWDQGTSVTVSS
VL: B2 VL with E3V, T25A, D28G, S31N, S32Y, T45K, N53S, K93N
notes: Mouse hybridoma antibody
